Assay results reported in article PMC10397247.
Each block holds one binder with its values, some of them ahead of it.

Experiments:
4H2290-AA = molecular target: T1, 4H2290-AA; experiment: two-hybrid library CCmax;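 also: natural log of median RNA to DNA barcode read ratio; higher means stronger binding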
T1 chain: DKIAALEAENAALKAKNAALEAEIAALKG

4H2447-AA = molecular target: T2, 4H2447-AA; experiment: two-hybrid library CCmax; details: mean of both orientations;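 also: natural log of median RNA to DNA barcode read ratio; higher means stronger binding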
T2 chain: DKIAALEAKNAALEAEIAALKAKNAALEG

4H2458-AA = molecular target: T3, 4H2458-AA; experiment: two-hybrid library CCmax; details: mean of both orientations;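 also: natural log of median RNA to DNA barcode read ratio; higher means stronger binding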
T3 chain: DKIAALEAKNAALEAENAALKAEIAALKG

4H3330-AA = molecular target: T4, 4H3330-AA; experiment: two-hybrid library CCmax; details: mean of both orientations;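 also: natural log of median RNA to DNA barcode read ratio; higher means stronger binding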
T4 chain: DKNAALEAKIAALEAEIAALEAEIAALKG

4H716-AA = molecular target: T5, 4H716-AA; experiment: two-hybrid library CCmax; details: mean of both orientations;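 also: natural log of median RNA to DNA barcode read ratio; higher means stronger binding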
T5 chain: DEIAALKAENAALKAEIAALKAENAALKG

4H733-AA = molecular target: T6, 4H733-AA; experiment: two-hybrid library CCmax; details: mean of both orientations;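 also: natural log of median RNA to DNA barcode read ratio; higher means stronger binding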
T6 chain: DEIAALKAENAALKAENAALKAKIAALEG

4H807-AA = molecular target: T7, 4H807-AA; experiment: two-hybrid library CCmax; details: mean of both orientations
T7 chain: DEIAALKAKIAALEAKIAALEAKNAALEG

APC1015-AA = molecular target: T8, APC1015-AA; experiment: two-hybrid library CCmax; details: mean of both orientations
T8 chain: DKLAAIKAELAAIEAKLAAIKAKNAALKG

APC1434-AA = molecular target: T9, APC1434-AA; experiment: two-hybrid library CCmax; details: mean of both orientations
T9 chain: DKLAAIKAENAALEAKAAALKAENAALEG

APC2237-AA = molecular target: T10, APC2237-AA; experiment: two-hybrid library CCmax; details: mean of both orientations
T10 chain: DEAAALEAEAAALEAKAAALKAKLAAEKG

APC232-AA = molecular target: T11, APC232-AA; experiment: two-hybrid library CCmax; details: mean of both orientations
T11 chain: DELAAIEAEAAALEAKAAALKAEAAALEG

APC2405-AA = molecular target: T12, APC2405-AA; experiment: two-hybrid library CCmax; details: mean of both orientations
T12 chain: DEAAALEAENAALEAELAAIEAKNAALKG

APC3645-AA = molecular target: T13, APC3645-AA; experiment: two-hybrid library CCmax; details: mean of both orientations
T13 chain: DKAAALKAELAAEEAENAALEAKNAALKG

APC4011-AA = molecular target: T14, APC4011-AA; experiment: two-hybrid library CCmax; details: mean of both orientations
T14 chain: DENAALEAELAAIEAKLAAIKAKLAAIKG

APC4264-AA = molecular target: T15, APC4264-AA; experiment: two-hybrid library CCmax; details: mean of both orientations
T15 chain: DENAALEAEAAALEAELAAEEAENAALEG

APC4436-AA = molecular target: T16, APC4436-AA; experiment: two-hybrid library CCmax; details: mean of both orientations
T16 chain: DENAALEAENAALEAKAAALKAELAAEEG

APC5383-AA = molecular target: T17, APC5383-AA; experiment: two-hybrid library CCmax; details: mean of both orientations
T17 chain: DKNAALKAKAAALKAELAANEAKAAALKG

APC6108-AA = molecular target: T18, APC6108-AA; experiment: two-hybrid library CCmax; details: mean of both orientations
T18 chain: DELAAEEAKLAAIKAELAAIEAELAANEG

APC7099-AA = molecular target: T19, APC7099-AA; experiment: two-hybrid library CCmax; details: mean of both orientations
T19 chain: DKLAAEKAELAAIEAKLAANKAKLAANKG

APC8191-AA = molecular target: T20, APC8191-AA; experiment: two-hybrid library CCmax; details: mean of both orientations
T20 chain: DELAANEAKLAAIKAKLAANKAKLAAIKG

APC8910-AA = molecular target: T21, APC8910-AA; experiment: two-hybrid library CCmax; details: mean of both orientations
T21 chain: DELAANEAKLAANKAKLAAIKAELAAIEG

APC9096-AA = molecular target: T22, APC9096-AA; experiment: two-hybrid library CCmax; details: mean of both orientations
T22 chain: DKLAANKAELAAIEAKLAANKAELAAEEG

APC9319-AA = molecular target: T23, APC9319-AA; experiment: two-hybrid library CCmax; details: mean of both orientations
T23 chain: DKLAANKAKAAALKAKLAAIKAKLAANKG

4H855-bN = molecular target: T24, 4H855-bN; experiment: two-hybrid library CCNG1
T24 chain: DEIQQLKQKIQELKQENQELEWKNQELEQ

4H918-bN = molecular target: T25, 4H918-bN; experiment: two-hybrid library CCNG1
T25 chain: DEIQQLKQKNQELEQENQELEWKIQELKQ

4H953-bN = molecular target: T26, 4H953-bN; experiment: two-hybrid library CCNG1
T26 chain: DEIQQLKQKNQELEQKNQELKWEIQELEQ

4H968-bN = molecular target: T27, 4H968-bN; experiment: two-hybrid library CCNG1
T27 chain: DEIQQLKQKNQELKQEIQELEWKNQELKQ

P1A-bN = molecular target: T28, P1A-bN; experiment: two-hybrid library CCNG1
T28 chain: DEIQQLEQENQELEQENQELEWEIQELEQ

4H1405-AA = molecular target: T29, 4H1405-AA; experiment: two-hybrid library CCmax
T29 chain: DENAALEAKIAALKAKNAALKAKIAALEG

4H175-AA = molecular target: T30, 4H175-AA; experiment: two-hybrid library CCmax
T30 chain: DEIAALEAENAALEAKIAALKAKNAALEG

4H2211-AA = molecular target: T31, 4H2211-AA; experiment: two-hybrid library CCmax; details: mean of both orientations
T31 chain: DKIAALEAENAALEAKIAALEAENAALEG

4H2238-AA = molecular target: T32, 4H2238-AA; experiment: two-hybrid library CCmax; details: mean of both orientations
T32 chain: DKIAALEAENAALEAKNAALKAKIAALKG

4H2513-AA = molecular target: T33, 4H2513-AA; experiment: two-hybrid library CCmax; details: mean of both orientations
T33 chain: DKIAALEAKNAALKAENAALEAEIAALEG

4H2536-AA = molecular target: T34, 4H2536-AA; experiment: two-hybrid library CCmax; details: mean of both orientations
T34 chain: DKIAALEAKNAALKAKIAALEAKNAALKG

4H2608-AA = molecular target: T35, 4H2608-AA; experiment: two-hybrid library CCmax; details: mean of both orientations
T35 chain: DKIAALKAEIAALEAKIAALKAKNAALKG

4H2614-AA = molecular target: T36, 4H2614-AA; experiment: two-hybrid library CCmax; details: mean of both orientations
T36 chain: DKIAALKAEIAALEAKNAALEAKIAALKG

4H2726-AA = molecular target: T37, 4H2726-AA; experiment: two-hybrid library CCmax; details: mean of both orientations
T37 chain: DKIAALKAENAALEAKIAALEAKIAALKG

4H2935-AA = molecular target: T38, 4H2935-AA; experiment: two-hybrid library CCmax; details: mean of both orientations
T38 chain: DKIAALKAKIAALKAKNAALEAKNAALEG

4H327-AA = molecular target: T39, 4H327-AA; experiment: two-hybrid library CCmax; details: mean of both orientations
T39 chain: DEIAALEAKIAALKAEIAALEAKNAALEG

4H3605-AA = molecular target: T40, 4H3605-AA; experiment: two-hybrid library CCmax; details: mean of both orientations
T40 chain: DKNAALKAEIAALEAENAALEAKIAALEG

4H3625-AA = molecular target: T41, 4H3625-AA; experiment: two-hybrid library CCmax; details: mean of both orientations
T41 chain: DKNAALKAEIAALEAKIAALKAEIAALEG

4H3664-AA = molecular target: T42, 4H3664-AA; experiment: two-hybrid library CCmax; details: mean of both orientations
T42 chain: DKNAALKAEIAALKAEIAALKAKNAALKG

4H369-AA = molecular target: T43, 4H369-AA; experiment: two-hybrid library CCmax; details: mean of both orientations
T43 chain: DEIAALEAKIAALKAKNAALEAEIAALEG

4H3922-AA = molecular target: T44, 4H3922-AA; experiment: two-hybrid library CCmax; details: mean of both orientations
T44 chain: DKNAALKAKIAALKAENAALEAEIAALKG

4H4033-AA = molecular target: T45, 4H4033-AA; experiment: two-hybrid library CCmax; details: mean of both orientations
T45 chain: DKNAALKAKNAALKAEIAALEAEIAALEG

4H481-AA = molecular target: T46, 4H481-AA; experiment: two-hybrid library CCmax; details: mean of both orientations
T46 chain: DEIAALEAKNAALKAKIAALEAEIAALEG

4H55-AA = molecular target: T47, 4H55-AA; experiment: two-hybrid library CCmax
T47 chain: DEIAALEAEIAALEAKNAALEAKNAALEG

4H662-AA = molecular target: T48, 4H662-AA; experiment: two-hybrid library CCmax; details: mean of both orientations
T48 chain: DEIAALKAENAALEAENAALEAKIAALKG

interaction score (4H2290-AA): 2 | interaction score (4H2447-AA): -1.32 | interaction score (4H2458-AA): -1.34 | interaction score (4H3330-AA): -1.24 | interaction score (4H716-AA): -1.57 | interaction score (4H733-AA): -1.79 | interaction score (4H807-AA): -1.62 | interaction score (APC1015-AA): -1.41 | interaction score (APC1434-AA): -1.4 | interaction score (APC2237-AA): -1.58 | interaction score (APC232-AA): -1.33 | interaction score (APC2405-AA): -1.42 | interaction score (APC3645-AA): -1.44 | interaction score (APC4011-AA): -1.59 | interaction score (APC4264-AA): -1.33 | interaction score (APC4436-AA): -1.53 | interaction score (APC5383-AA): -1.86 | interaction score (APC6108-AA): -1.54 | interaction score (APC7099-AA): -1.57 | interaction score (APC8191-AA): -1.64 | interaction score (APC8910-AA): -1.59 | interaction score (APC9096-AA): -1.24 | interaction score (APC9319-AA): -1.68
Binder: DKIAALEAENAALKAKNAALEAEIAALKG [4H2290-AA]

interaction score (4H855-bN): -0.495 | interaction score (4H918-bN): -0.862 | interaction score (4H953-bN): -0.67 | interaction score (4H968-bN): -1.39 | interaction score (P1A-bN): -0.584
Binder: DEIQQLKQKIQELKQENQELEWKNQELEQ [4H855-bN]

interaction score (4H1405-AA): -1.08 | interaction score (4H175-AA): 1.87 | interaction score (4H2211-AA): 1.88 | interaction score (4H2238-AA): -1.22 | interaction score (4H2513-AA): -1.52 | interaction score (4H2536-AA): -1.01 | interaction score (4H2608-AA): -0.735 | interaction score (4H2614-AA): 1.52 | interaction score (4H2726-AA): 0.87 | interaction score (4H2935-AA): -1.84 | interaction score (4H327-AA): -1.19 | interaction score (4H3605-AA): 2.26 | interaction score (4H3625-AA): -1.11 | interaction score (4H3664-AA): -1.67 | interaction score (4H369-AA): -0.585 | interaction score (4H3922-AA): 0.997 | interaction score (4H4033-AA): -0.407 | interaction score (4H481-AA): -0.893 | interaction score (4H55-AA): -1.42 | interaction score (4H662-AA): 0.709
Binder: DENAALEAKIAALKAKNAALKAKIAALEG [4H1405-AA]
